Assay results published in patent publication US20230365714A1 (published 2023).

Target: T1, ROR211 shuffle variant (Ig-like domain of ROR2, CRD and kringle domain of ROR1) (human (ROR1/ROR2 chimera), UniProt Q01973 18-937)
T1 construct: Transiently expressed on CHO cells
T1 chain: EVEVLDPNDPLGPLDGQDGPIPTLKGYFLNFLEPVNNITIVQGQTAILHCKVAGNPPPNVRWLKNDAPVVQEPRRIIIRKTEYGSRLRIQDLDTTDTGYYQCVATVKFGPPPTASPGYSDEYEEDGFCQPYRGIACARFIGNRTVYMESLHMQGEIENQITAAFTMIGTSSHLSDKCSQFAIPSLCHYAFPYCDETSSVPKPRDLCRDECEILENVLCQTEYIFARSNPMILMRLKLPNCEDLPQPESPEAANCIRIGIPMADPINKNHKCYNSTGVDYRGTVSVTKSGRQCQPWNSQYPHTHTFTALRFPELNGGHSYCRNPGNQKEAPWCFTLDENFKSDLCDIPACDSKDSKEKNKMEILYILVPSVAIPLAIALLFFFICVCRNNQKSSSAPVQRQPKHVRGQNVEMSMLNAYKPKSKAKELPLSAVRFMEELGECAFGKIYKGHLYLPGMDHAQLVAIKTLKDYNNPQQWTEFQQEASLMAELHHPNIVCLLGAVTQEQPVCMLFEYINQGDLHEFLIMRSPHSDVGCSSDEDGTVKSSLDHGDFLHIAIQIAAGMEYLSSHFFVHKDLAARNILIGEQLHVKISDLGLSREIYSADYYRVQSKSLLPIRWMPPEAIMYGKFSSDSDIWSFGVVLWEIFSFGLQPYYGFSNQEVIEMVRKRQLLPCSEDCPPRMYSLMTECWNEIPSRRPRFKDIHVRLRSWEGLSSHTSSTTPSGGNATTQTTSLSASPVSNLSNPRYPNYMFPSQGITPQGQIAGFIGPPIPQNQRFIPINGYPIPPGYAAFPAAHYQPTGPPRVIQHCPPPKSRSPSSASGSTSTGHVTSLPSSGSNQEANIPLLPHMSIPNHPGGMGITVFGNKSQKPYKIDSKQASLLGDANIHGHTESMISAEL
Assay: cell imaging (CellInsight) on CHO cells expressing the shuffle construct
Description: Binding was determined […] using a cell imaging screening system (Celllnsight, Thermo Fisher) as per manufacturer's recommendations. In short, CHO cells expressing shuffle constructs ROR112, ROR121, ROR122, ROR211 or ROR221 (3,000 cells/well in 384-well plates) were incubated with antibody or control samples for 18 h at 37° C./5% CO₂, washed and incubated with an Alexa488-labeled detection antibody for 4 h. Hoechst dye was added and fluorescence images were collected, measuring total spot intensity (RFU).

RFU (total spot intensity): 0 RFU
binding result: no binding (tested: RFU = 0)
B1: chIgG1-ROR2-A (antibody, V domains shown)
VH: QSVEESGGRLVTPGTPLTLTCTVSGFSLSSYSMSWVRQAPGKGLEWIGVIYVNSKTWYANWAKGRFTISKTSTTVDLKITSPTTEDTATYFCARGDAGYTTNSWLWGPGTLVTVSS
VL: AFELTQTPASVSEPVGGTVTIKCQASESIDNYCSWYQQKPGQPPKLLIYQAFKLASGVPSRFRGSGSGTQFTLTISDLESDDAATYYCQSYSGISTTAFGGGTEVVVK
notes: Rabbit-human chimeric antibody; also called ROR2 specific antibody A
